This passage reports EC50 results from patent US20220267415A1.

A word on the EC50: it is the concentration that produces a half-maximal response.

In the test the target is recombinant SARS-CoV-2 Receptor Binding Domain (RBD) with a his tag (ATUM, Cat. 65639.1.a) (SARS-CoV-2), P0DTC2. Kind of test: ELISA on coated RBD-his. As to conditions: remark: other sources report otherwise. On the technique in general: In an ELISA, binding on a coated surface is turned into a signal by an enzyme label.

B1: anti-SARS-CoV2-09 IgG (antibody, V domains shown)
VH: QVQLHQWGAGLLKPSETLSRTCAVYGGSFSGYYWTWIRQAPGKGLEWIGEINHGGSTRYNPSLESRVSISVDTSKKQFSLELRSVTAADTAIYYCARGYDTNWYGDGYNWFDPWDRGTLVTVSS
VL: QSALTQDPSVSVALGQTVRITCQGDSLRGSFASWYRQKPGQAPVLVIFGINNRPSGVPDRFSGSSSGNTASLTITGAQAEDEADYYCNSRESNSNRILFGGGTKVTVL
For B1, the EC50 turned out to be 2.3 nM.

B2: anti-SARS-CoV2-16 IgG (antibody, V domains shown)
VH: B1 VH
VL: QAVVTQPPSVSGTPGQRVTISCSGSSSSIGSNTVHWYQHLPGTAPKLLMYNNNERPSGVPARFSGSKSGTSASLVITGLQADDEAEYYCQSYDTGLSGHVFGSGTELTVL
For B2, the EC50 amounted to 4.2 nM.
